Source: the supplement of paper PMC9112550, “Optimization of the antimicrobial peptide Bac7 by deep mutational scanning” (BMC Biology, 2022)

System: Escherichia coli TOP10
Test: shrunken log2 fold change of peptide-encoding DNA abundance (4.5 h post-induction vs induction); higher = less antimicrobial activity (less host growth inhibition)
Details: time post-induction: 4.5 h; library: site-saturation at positions 5, 18, 19, 20
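Further: peptides expressed intracellularly from a pBAD plasmid library in pooled LB shake-flask culture, induced with 0.3% L-arabinose, DNA abundance read by NGS, three biological replicates, DESeq2 with apeglm shrinkage.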

| Sequence | shrunken log2 fold change |
| --- | --- |
| RRIRDRPPRLPRPRPRPNDMPRP | -0.104 |
| RRIRDRPPRLPRPRPRPNECPRP | 0.0169 |
| RRIRDRPPRLPRPRPRPNFQPRP | 0.151 |
| RRIRDRPPRLPRPRPRPNFTPRP | -0.0368 |
| RRIRDRPPRLPRPRPRPNFWPRP | 0.375 |
| RRIRDRPPRLPRPRPRPNGNPRP | -0.169 |
| RRIRDRPPRLPRPRPRPNHKPRP | -0.661 |
| RRIRDRPPRLPRPRPRPNHNPRP | -0.539 |
| RRIRDRPPRLPRPRPRPNHVPRP | -0.242 |
| RRIRDRPPRLPRPRPRPNIFPRP | -0.0871 |
| RRIRDRPPRLPRPRPRPNIPPRP | -0.623 |
| RRIRDRPPRLPRPRPRPNKIPRP | -0.457 |
| RRIRDRPPRLPRPRPRPNKKPRP | -0.117 |
| RRIRDRPPRLPRPRPRPNKLPRP | -0.277 |
| RRIRDRPPRLPRPRPRPNMNPRP | -0.41 |
| RRIRDRPPRLPRPRPRPNQAPRP | -0.0261 |
| RRIRDRPPRLPRPRPRPNQIPRP | -0.044 |
| RRIRDRPPRLPRPRPRPNRLPRP | 0.0873 |
| RRIRDRPPRLPRPRPRPNSWPRP | -0.12 |
| RRIRDRPPRLPRPRPRPNTDPRP | -0.179 |
| RRIRDRPPRLPRPRPRPNTHPRP | -0.292 |
| RRIRDRPPRLPRPRPRPNTSPRP | -0.284 |
| RRIRDRPPRLPRPRPRPNWMPRP | -0.0161 |
| RRIRDRPPRLPRPRPRPNWQPRP | 0.00408 |
| RRIRDRPPRLPRPRPRPNYYPRP | -0.305 |

| Sequence | shrunken log2 fold change |
| --- | --- |
| RRIRDRPPRLPRPRPRPPACPRP | 0.0727 |
| RRIRDRPPRLPRPRPRPPASPRP | 0.513 |
| RRIRDRPPRLPRPRPRPPCFPRP | 0.35 |
| RRIRDRPPRLPRPRPRPPCWPRP | 0.407 |
| RRIRDRPPRLPRPRPRPPDNPRP | -0.272 |
| RRIRDRPPRLPRPRPRPPEGPRP | 0.76 |
| RRIRDRPPRLPRPRPRPPGIPRP | 0.233 |
| RRIRDRPPRLPRPRPRPPINPRP | -0.205 |
| RRIRDRPPRLPRPRPRPPKCPRP | 0.0933 |
| RRIRDRPPRLPRPRPRPPKNPRP | 0.344 |
| RRIRDRPPRLPRPRPRPPLYPRP | 0.0303 |
| RRIRDRPPRLPRPRPRPPMRPRP | 0.759 |
| RRIRDRPPRLPRPRPRPPNRPRP | 0.789 |
| RRIRDRPPRLPRPRPRPPQHPRP | 0.171 |
| RRIRDRPPRLPRPRPRPPQRPRP | 0.719 |
| RRIRDRPPRLPRPRPRPPRLPRP | 0.144 |
| RRIRDRPPRLPRPRPRPPRTPRP | 0.389 |
| RRIRDRPPRLPRPRPRPPTNPRP | 0.0808 |
| RRIRDRPPRLPRPRPRPPVMPRP | -0.435 |
| RRIRDRPPRLPRPRPRPPYPPRP | 0.109 |
| RRIRDRPPRLPRPRPRPQAQPRP | -0.0247 |
| RRIRDRPPRLPRPRPRPQCKPRP | 0.0759 |
| RRIRDRPPRLPRPRPRPQDEPRP | -0.166 |
| RRIRDRPPRLPRPRPRPQDPPRP | -0.213 |
| RRIRDRPPRLPRPRPRPQEYPRP | -0.0984 |

| Sequence | shrunken log2 fold change |
| --- | --- |
| RRIRDRPPRLPRPRPRPQFHPRP | -0.438 |
| RRIRDRPPRLPRPRPRPQFPPRP | 0.0234 |
| RRIRDRPPRLPRPRPRPQFRPRP | -0.296 |
| RRIRDRPPRLPRPRPRPQGMPRP | -0.00277 |
| RRIRDRPPRLPRPRPRPQINPRP | -0.0439 |
| RRIRDRPPRLPRPRPRPQLPPRP | 0.186 |
| RRIRDRPPRLPRPRPRPQMKPRP | -0.166 |
| RRIRDRPPRLPRPRPRPQMRPRP | -0.0122 |
| RRIRDRPPRLPRPRPRPQPHPRP | 0.228 |
| RRIRDRPPRLPRPRPRPQQHPRP | 0.0276 |
| RRIRDRPPRLPRPRPRPQRQPRP | 0.0345 |
| RRIRDRPPRLPRPRPRPQSKPRP | -0.0457 |
| RRIRDRPPRLPRPRPRPQTPPRP | 0.4 |
| RRIRDRPPRLPRPRPRPQTQPRP | 0.372 |
| RRIRDRPPRLPRPRPRPQVLPRP | -0.178 |
| RRIRDRPPRLPRPRPRPQWQPRP | -0.0558 |
| RRIRDRPPRLPRPRPRPQYQPRP | -0.156 |
| RRIRDRPPRLPRPRPRPRAWPRP | 0.0227 |
| RRIRDRPPRLPRPRPRPRCGPRP | 0.565 |
| RRIRDRPPRLPRPRPRPRCKPRP | -0.0316 |
| RRIRDRPPRLPRPRPRPRDWPRP | 0.619 |
| RRIRDRPPRLPRPRPRPREEPRP | 1.27 |
| RRIRDRPPRLPRPRPRPRFYPRP | 0.386 |
| RRIRDRPPRLPRPRPRPRGFPRP | 0.586 |
| RRIRDRPPRLPRPRPRPRGQPRP | 0.141 |

| Sequence | shrunken log2 fold change |
| --- | --- |
| RRIRDRPPRLPRPRPRPRHDPRP | 0.0894 |
| RRIRDRPPRLPRPRPRPRIVPRP | -0.385 |
| RRIRDRPPRLPRPRPRPRKRPRP | 0.382 |
| RRIRDRPPRLPRPRPRPRLLPRP | 0.146 |
| RRIRDRPPRLPRPRPRPRLPPRP | 0.4 |
| RRIRDRPPRLPRPRPRPRMVPRP | -0.177 |
| RRIRDRPPRLPRPRPRPRNAPRP | -0.145 |
| RRIRDRPPRLPRPRPRPRPPPRP | 0.935 |
| RRIRDRPPRLPRPRPRPRQHPRP | 0.153 |
| RRIRDRPPRLPRPRPRPRQLPRP | 0.185 |
| RRIRDRPPRLPRPRPRPRSEPRP | -0.0682 |
| RRIRDRPPRLPRPRPRPRTAPRP | 0.445 |
| RRIRDRPPRLPRPRPRPRVMPRP | 0.106 |
| RRIRDRPPRLPRPRPRPRVQPRP | -0.183 |
| RRIRDRPPRLPRPRPRPRVSPRP | 0.223 |
| RRIRDRPPRLPRPRPRPRWSPRP | 0.264 |
| RRIRDRPPRLPRPRPRPRYMPRP | -0.233 |
| RRIRDRPPRLPRPRPRPRYWPRP | 0.152 |
| RRIRDRPPRLPRPRPRPSANPRP | 0.119 |
| RRIRDRPPRLPRPRPRPSAYPRP | 0.0641 |
| RRIRDRPPRLPRPRPRPSCGPRP | 0.301 |
| RRIRDRPPRLPRPRPRPSCIPRP | 0.0916 |
| RRIRDRPPRLPRPRPRPSDVPRP | -0.022 |
| RRIRDRPPRLPRPRPRPSDYPRP | -0.566 |
| RRIRDRPPRLPRPRPRPSEEPRP | 0.277 |

| Sequence | shrunken log2 fold change |
| --- | --- |
| RRIRDRPPRLPRPRPRPSEHPRP | 0.12 |
| RRIRDRPPRLPRPRPRPSFFPRP | -0.168 |
| RRIRDRPPRLPRPRPRPSGQPRP | -0.0305 |
| RRIRDRPPRLPRPRPRPSICPRP | -0.0317 |
| RRIRDRPPRLPRPRPRPSIMPRP | -0.0808 |
| RRIRDRPPRLPRPRPRPSLDPRP | -0.0616 |
| RRIRDRPPRLPRPRPRPSLMPRP | 0.175 |
| RRIRDRPPRLPRPRPRPSMMPRP | 0.636 |
| RRIRDRPPRLPRPRPRPSNSPRP | -0.365 |
| RRIRDRPPRLPRPRPRPSSHPRP | -0.124 |
| RRIRDRPPRLPRPRPRPSVFPRP | 0.423 |
| RRIRDRPPRLPRPRPRPSWEPRP | -0.00136 |
| RRIRDRPPRLPRPRPRPSYPPRP | -0.2 |
| RRIRDRPPRLPRPRPRPSYVPRP | -0.206 |
| RRIRDRPPRLPRPRPRPTEGPRP | -0.0161 |
| RRIRDRPPRLPRPRPRPTGIPRP | 0.26 |
| RRIRDRPPRLPRPRPRPTGQPRP | -0.0665 |
| RRIRDRPPRLPRPRPRPTHLPRP | -0.175 |
| RRIRDRPPRLPRPRPRPTINPRP | 0.135 |
| RRIRDRPPRLPRPRPRPTKNPRP | 0.0799 |
| RRIRDRPPRLPRPRPRPTLMPRP | 0.114 |
| RRIRDRPPRLPRPRPRPTLPPRP | -0.027 |
| RRIRDRPPRLPRPRPRPTMKPRP | 0.192 |
| RRIRDRPPRLPRPRPRPTPFPRP | -0.13 |
| RRIRDRPPRLPRPRPRPTPLPRP | 0.484 |

| Sequence | shrunken log2 fold change |
| --- | --- |
| RRIRDRPPRLPRPRPRPTPSPRP | 0.368 |
| RRIRDRPPRLPRPRPRPTQFPRP | 0.216 |
| RRIRDRPPRLPRPRPRPTQHPRP | 0.396 |
| RRIRDRPPRLPRPRPRPTQIPRP | 0.114 |
| RRIRDRPPRLPRPRPRPTQRPRP | 0.746 |
| RRIRDRPPRLPRPRPRPTQSPRP | 0.439 |
| RRIRDRPPRLPRPRPRPTQTPRP | 0.121 |
| RRIRDRPPRLPRPRPRPTRFPRP | 0.0657 |
| RRIRDRPPRLPRPRPRPTRPPRP | 1.13 |
| RRIRDRPPRLPRPRPRPTRYPRP | 0.317 |
| RRIRDRPPRLPRPRPRPTSHPRP | -0.146 |
| RRIRDRPPRLPRPRPRPTVIPRP | -0.118 |
| RRIRDRPPRLPRPRPRPVCCPRP | 0.967 |
| RRIRDRPPRLPRPRPRPVCRPRP | 0.251 |
| RRIRDRPPRLPRPRPRPVCSPRP | 0.222 |
| RRIRDRPPRLPRPRPRPVFVPRP | 0.225 |
| RRIRDRPPRLPRPRPRPVGIPRP | -0.0542 |
| RRIRDRPPRLPRPRPRPVHIPRP | -0.144 |
| RRIRDRPPRLPRPRPRPVHPPRP | 0.184 |
| RRIRDRPPRLPRPRPRPVHRPRP | 0.0594 |
| RRIRDRPPRLPRPRPRPVHSPRP | -0.243 |
| RRIRDRPPRLPRPRPRPVIPPRP | 0.471 |
| RRIRDRPPRLPRPRPRPVIRPRP | -0.19 |
| RRIRDRPPRLPRPRPRPVMDPRP | 0.114 |
| RRIRDRPPRLPRPRPRPVMKPRP | -0.0716 |
